Test results: paper PMC8564539
Values belong to the substance of their own block, whether it stands above or below them.

Key:
Assay in all cases: AlphaScreen or HTRF; ALPHA: FLAG-tagged domain mixed with biotin-tagged domain (cell-free translation mixtures), streptavidin donor beads, anti-DYKDDDDK antibody with protein A acceptor beads; 100 mM Tris-HCl pH 8.0, 0.01% Tween 20, 1 mg/mL BSA; 25 °C, 24 h; median of duplicate reactions
NLRC4_CARD (human) = NLRC4_CARD (human) (UniProt Q9NPP4)
CASP1_CARD (human) = CASP1_CARD (human) (UniProt P29466)
Sequence of CASP1_CARD (human) (P29466 1-91): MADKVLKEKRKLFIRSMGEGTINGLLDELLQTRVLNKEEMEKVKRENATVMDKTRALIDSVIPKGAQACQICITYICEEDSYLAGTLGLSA

ASC_PYD-CARD (human) = ASC_PYD-CARD (human) (UniProt Q9ULZ3)
Sequence of ASC_PYD-CARD (human) (Q9ULZ3 whole entry): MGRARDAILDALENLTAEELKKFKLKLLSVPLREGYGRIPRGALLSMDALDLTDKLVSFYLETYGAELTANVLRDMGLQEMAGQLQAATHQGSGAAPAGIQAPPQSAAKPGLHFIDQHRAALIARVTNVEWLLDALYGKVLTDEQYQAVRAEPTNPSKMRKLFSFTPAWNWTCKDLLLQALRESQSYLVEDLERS

IRAK3_DD (human) = IRAK3_DD (human) (UniProt Q9Y616)
Sequence of IRAK3_DD (human) (Q9Y616 whole entry): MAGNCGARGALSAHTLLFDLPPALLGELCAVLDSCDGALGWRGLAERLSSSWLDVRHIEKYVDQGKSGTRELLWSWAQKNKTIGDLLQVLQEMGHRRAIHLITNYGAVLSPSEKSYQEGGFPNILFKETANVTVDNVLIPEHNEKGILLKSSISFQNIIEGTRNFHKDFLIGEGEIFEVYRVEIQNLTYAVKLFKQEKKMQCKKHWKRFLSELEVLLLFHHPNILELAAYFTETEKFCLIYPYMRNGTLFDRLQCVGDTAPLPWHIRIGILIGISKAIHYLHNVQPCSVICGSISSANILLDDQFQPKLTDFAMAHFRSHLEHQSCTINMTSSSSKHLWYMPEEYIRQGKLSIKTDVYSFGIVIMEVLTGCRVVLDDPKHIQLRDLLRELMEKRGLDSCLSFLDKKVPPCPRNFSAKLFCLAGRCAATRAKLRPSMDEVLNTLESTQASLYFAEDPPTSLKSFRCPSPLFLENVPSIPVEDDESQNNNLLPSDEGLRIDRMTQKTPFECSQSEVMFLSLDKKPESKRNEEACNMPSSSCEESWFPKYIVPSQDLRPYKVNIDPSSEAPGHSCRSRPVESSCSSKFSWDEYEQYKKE

FADD_DED-DD (human) = FADD_DED-DD (human) (UniProt Q13158)
Sequence of FADD_DED-DD (human) (Q13158 whole entry): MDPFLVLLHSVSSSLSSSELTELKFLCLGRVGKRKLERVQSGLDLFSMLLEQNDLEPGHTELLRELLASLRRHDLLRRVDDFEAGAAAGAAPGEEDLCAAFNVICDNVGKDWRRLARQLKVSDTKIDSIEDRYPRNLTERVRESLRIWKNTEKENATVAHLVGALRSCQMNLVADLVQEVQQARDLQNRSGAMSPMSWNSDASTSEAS

CASP2_CARD (human) = CASP2_CARD (human) (UniProt P42575)
Sequence of CASP2_CARD (human) (P42575 32-121): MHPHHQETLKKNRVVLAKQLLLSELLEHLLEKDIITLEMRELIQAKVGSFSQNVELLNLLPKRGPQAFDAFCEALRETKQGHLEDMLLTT

PYDC2_PYD (human) = PYDC2_PYD (human) (UniProt Q56P42)
Sequence of PYDC2_PYD (human) (Q56P42 whole entry): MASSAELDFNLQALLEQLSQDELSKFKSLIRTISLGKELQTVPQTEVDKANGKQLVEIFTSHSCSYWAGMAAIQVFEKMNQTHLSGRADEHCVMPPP

CASP8_DED1-DED2 (human) = CASP8_DED1-DED2 (human) (UniProt Q14790)
TNFRSF1A_DD (human) = TNFRSF1A_DD (human) (UniProt P19438)
Sequence of TNFRSF1A_DD (human) (P19438 356-441): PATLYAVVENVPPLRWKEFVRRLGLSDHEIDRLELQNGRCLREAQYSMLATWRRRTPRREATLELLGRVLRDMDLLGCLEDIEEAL

TRADD_DD (human) = TRADD_DD (human) (UniProt Q15628)
Sequence of TRADD_DD (human) (Q15628 179-289): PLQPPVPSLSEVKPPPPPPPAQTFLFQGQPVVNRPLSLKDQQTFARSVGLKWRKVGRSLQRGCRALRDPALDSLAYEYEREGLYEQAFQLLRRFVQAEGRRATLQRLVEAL

CASP10_DED1-DED2 (human) = CASP10_DED1-DED2 (human) (UniProt Q92851)
RIPK1_DD (human) = RIPK1_DD (human) (UniProt Q13546)
Sequence of RIPK1_DD (human) (Q13546 583-669): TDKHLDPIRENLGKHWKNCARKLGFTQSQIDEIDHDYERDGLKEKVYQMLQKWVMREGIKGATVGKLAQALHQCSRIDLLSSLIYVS

CFLAR_DED1-DED2 (human) = CFLAR_DED1-DED2 (human) (UniProt O15519)
CASP8_DED1 (human) = CASP8_DED1 (human) (UniProt Q14790)
DAPK1_DD (human) = DAPK1_DD (human) (UniProt P53355)
Sequence of DAPK1_DD (human) (P53355 1312-1396): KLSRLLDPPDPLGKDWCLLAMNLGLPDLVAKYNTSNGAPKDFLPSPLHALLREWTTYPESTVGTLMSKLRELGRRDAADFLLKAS

Sequence of CRADD_CARD-DD (P78560 whole entry, the tested form may be a part): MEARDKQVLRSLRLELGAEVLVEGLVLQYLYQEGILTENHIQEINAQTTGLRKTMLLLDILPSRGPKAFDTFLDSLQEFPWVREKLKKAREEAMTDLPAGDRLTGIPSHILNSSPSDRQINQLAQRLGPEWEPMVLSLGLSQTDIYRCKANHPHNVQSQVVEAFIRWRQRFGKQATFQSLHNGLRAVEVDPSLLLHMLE
Sequence of CASP1_CARD (P29466 1-91): as the sequence (P29466 1-91) above
Sequence of NLRC4_CARD (human) (Q9NPP4 1-88): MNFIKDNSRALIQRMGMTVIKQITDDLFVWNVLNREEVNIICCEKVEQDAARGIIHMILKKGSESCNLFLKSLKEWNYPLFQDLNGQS
Sequence of FADD_DED-DD (Q13158 whole entry, the tested form may be a part): as the sequence (Q13158 whole entry) above

Substance: ASC_PYD-CARD (from UniProt Q9ULZ3 1-195) (domain or fragment)
ALPHA signal (RLU) (NLRC4_CARD (human)): 1690 RLU
ALPHA signal (RLU) (CASP1_CARD (human)): 1730 RLU

Substance: CASP1_CARD (from UniProt P29466 1-91) (domain or fragment)
ALPHA signal (RLU) (ASC_PYD-CARD (human)): 4880 RLU

Substance: CASP8_DED1 (from UniProt Q14790 2-80) (domain or fragment)
ALPHA signal (RLU) (IRAK3_DD (human)): 968 RLU

Substance: CASP8_DED1-DED2 (from UniProt Q14790 1-177) (domain or fragment)
ALPHA signal (RLU) (FADD_DED-DD (human)): 9380 RLU

Substance: FADD_DED-DD (from UniProt Q13158 1-208) (domain or fragment)
ALPHA signal (RLU) (CASP8_DED1-DED2 (human)): 11000 RLU
ALPHA signal (RLU) (TNFRSF1A_DD (human)): 964 RLU
ALPHA signal (RLU) (TRADD_DD (human)): 39600 RLU
ALPHA signal (RLU) (CASP10_DED1-DED2 (human)): 20700 RLU
ALPHA signal (RLU) (RIPK1_DD (human)): 20000 RLU
ALPHA signal (RLU) (CFLAR_DED1-DED2 (human)): 20100 RLU

Substance: IRAK3_DD (from UniProt Q9Y616 1-596) (domain or fragment)
ALPHA signal (RLU) (CASP8_DED1 (human)): 1350 RLU

Substance: PYDC2_PYD (from UniProt Q56P42 1-97) (domain or fragment)
ALPHA signal (RLU) (DAPK1_DD (human)): 970 RLU

Substance: RIPK1_DD (from UniProt Q13546 583-669) (domain or fragment)
ALPHA signal (RLU) (FADD_DED-DD (human)): 30600 RLU

Substance: TRADD_DD (from UniProt Q15628 179-289) (domain or fragment)
ALPHA signal (RLU) (FADD_DED-DD (human)): 31700 RLU

Further lines, results first:

ALPHA signal (RLU) (FADD_DED-DD (human)): 10200 RLU
Substance: CASP10_DED1-DED2 (from UniProt Q92851 19-187) (domain or fragment)

ALPHA signal (RLU) (CASP2_CARD (human)): 2420 RLU
Substance: CRADD_CARD-DD (from UniProt P78560 1-199) (domain or fragment)

ALPHA signal (RLU) (PYDC2_PYD (human)): 3540 RLU
Substance: DAPK1_DD (from UniProt P53355 1312-1396) (domain or fragment)

ALPHA signal (RLU) (FADD_DED-DD (human)): 5570 RLU
Substance: TNFRSF1A_DD (from UniProt P19438 356-441) (domain or fragment)
